This is an account of results in patent US20030158387A1.

Like-named read-outs stand apart in the source and are kept apart here. *: point of attachment. Nonanoyl = CCCCCCCCC(=O)*

In assay [1] the target is chemokine receptor 1 (CCR1) (UniProt P56482).
The target is the same in assay [2]. The source holds these as a separate data set.
The target is the same in assay [3]. Nature of the assay: cell-based or functional assay.
For assay [4] the target is unchanged. Briefly: competition with 125I-RANTES for binding to CCR1.
The target is the same in assay [5]. Nature of the assay: competition radioligand binding, membranes of CHO-K1 cells expressing CCR1, tracer [125I]-MIP-1 alpha.
Assay [6] shares this target. Briefly: competition with 125I-RANTES, membranes of CHO-K1 cells expressing CCR1, filtration, one site competition model; 125I-Rantes tracer, CCR1 membranes.
For assay [7], the target named is chemokine receptor 5 (CCR5) (human), P51681. Nature of the assay: competition radioligand binding, membranes of CHO-K1 cells expressing CCR5, tracer [125I]-MIP-1 beta. Particulars: remark: other sources report otherwise.
Chain of chemokine receptor 5 (CCR5) (human), P51681 (P51681 whole entry): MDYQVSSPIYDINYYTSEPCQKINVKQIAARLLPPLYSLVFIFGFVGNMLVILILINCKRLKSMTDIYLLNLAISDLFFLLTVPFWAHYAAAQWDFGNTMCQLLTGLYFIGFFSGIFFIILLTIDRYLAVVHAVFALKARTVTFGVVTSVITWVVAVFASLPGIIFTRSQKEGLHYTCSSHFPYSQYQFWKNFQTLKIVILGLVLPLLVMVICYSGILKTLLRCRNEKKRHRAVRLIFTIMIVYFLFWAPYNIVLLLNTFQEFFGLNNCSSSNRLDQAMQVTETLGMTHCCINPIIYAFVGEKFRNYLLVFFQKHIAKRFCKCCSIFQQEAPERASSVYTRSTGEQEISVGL
Assay [8] shares this target. Briefly: competition radioligand binding, membranes of CHO-K1 cells expressing CCR5, tracer [125I]-MIP-1 beta; mean ± SEM. As to conditions: remark: other sources report otherwise.
In assay [9] the target is chemokine receptor 1 (CCR1) (UniProt P56482). Nature of the assay: competition radioligand binding, membranes of CHO-K1 cells expressing CCR1, tracer [125I]-MIP-1 alpha. The source holds these as a separate data set.
The target is the same in assay [10]. The source holds these as a separate data set.
The target is the same in assay [11]. Nature of the assay: competition radioligand binding on CCR1 (assay not given).

B1: processed human chemokine PHC-1 (HCC-1[9-74]) (ligand)
chain: GPYHPSECCFTYTTYKIPRQRIMDYYETNSQCSKPGIVFITKRGHSVCTNPSDKWVQDYIKDMKEN
What is called EC50 (read off the curve) is the concentration giving half of the maximal effect. In general, Ki refers to a measure of affinity in units of concentration, obtained from inhibition or displacement. Low readings indicate a stronger hold on the target, high ones a looser hold on the target. One may read the IC50 as the concentration that inhibits the measured activity by half. A low value points to greater potency in that assay. As to B1, in assay [1], the EC50 (aequorin luminescence, CHO-K1 cells expressing CCR1) stood at 2.62 nM. For the same molecule, the concentration giving a half-maximal response (EC50 (read off the curve)) in assay [2] stood at 2 nM. In assay [3], this molecule displayed an EC50 of receptor activation (aequorin assay) of 2.8 nM. Also, the Ki in assay [4] amounted to 0.023 nM. In [5], this molecule displayed an IC50 (read off the curve) of 0.2 nM. This molecule returned an IC50 in assay [6] of 2.3 nM.

B2: RANTES, P13501 24-91 (ligand, UniProt P13501 24-91, looked up)
chain: SPYSSDTTPCCFAYIARPLPRAHIKEYFYTSGKCSNPAVVFVTRKNRQVCANPEKKWVREYINSLEMS
modifications: ends and bridges not checked; also: 125I-labelled where used as tracer, unlabelled in functional assays
In turn, B2 registered an IC50 (read off the curve) in assay [7] of 0.1 nM. The molecule also returned an IC50 in [8] of 0.116 nM.

B3: HCC-1[8-74] (ligand)
chain: RGPYHPSECCFTYTTYKIPRQRIMDYYETNSQCSKPGIVFITKRGHSVCTNPSDKWVQDYIKDMKEN
As to B3, the EC50 (aequorin luminescence, CHO-K1 cells expressing CCR1) in assay [1] came out at 35.2 nM.

B4: HCC-1[7-74] (ligand)
chain: SRGPYHPSECCFTYTTYKIPRQRIMDYYETNSQCSKPGIVFITKRGHSVCTNPSDKWVQDYIKDMKEN
For the molecule B4, in [1], the EC50 (aequorin luminescence, CHO-K1 cells expressing CCR1) came out at 218 nM.

B5: HCC-1[10-74] (ligand)
chain: PYHPSECCFTYTTYKIPRQRIMDYYETNSQCSKPGIVFITKRGHSVCTNPSDKWVQDYIKDMKEN
Regarding B5, the EC50 (aequorin luminescence, CHO-K1 cells expressing CCR1) in [1] was 4.32 nM. In [2], this molecule had an EC50 (read off the curve) of 3 nM. Moreover, the IC50 (read off the curve) in assay [5] came out at 0.2 nM; in assay [9] it was 0.1 nM.

B6: NNY-HCC-1[10-74] (nonanoyl-HCC-1[10-74]) (ligand)
chain: Nonanoyl-PYHPSECCFTYTTYKIPRQRIMDYYETNSQCSKPGIVFITKRGHSVCTNPSDKWVQDYIKDMKEN
modifications: ends and bridges not checked
In assay [1], B6 registered an EC50 (aequorin luminescence, CHO-K1 cells expressing CCR1) of 5.9 nM. The 50% effective concentration (EC50 (read off the curve)) in [10] amounted to 4 nM. In [9], the IC50 (read off the curve) was 0.1 nM.

B7: HCC-1[11-74] (ligand)
chain: YHPSECCFTYTTYKIPRQRIMDYYETNSQCSKPGIVFITKRGHSVCTNPSDKWVQDYIKDMKEN
In assay [1], B7 had an EC50 (aequorin luminescence, CHO-K1 cells expressing CCR1) of 40.3 nM.

B8: HCC-1, residues 6-74 (ligand)
chain: SSRGPYHPSECCFTYTTYKIPRQRIMDYYETNSQCSKPGIVFITKRGHSVCTNPSDKWVQDYIKDMKEN
B8 registered an EC50 (aequorin luminescence, CHO-K1 cells expressing CCR1) in [1] of 262 nM.

B9: full size human chemokine HCC-1 (residues 1-74) (ligand)
chain: TKTESSSRGPYHPSECCFTYTTYKIPRQRIMDYYETNSQCSKPGIVFITKRGHSVCTNPSDKWVQDYIKDMKEN
The molecule B9 had a Ki in [11] of 100 nM.

B10: HCC-1[12-74] (ligand)
chemokine chain: HPSECCFTYTTYKIPRQRIMDYYETNSQCSKPGIVFITKRGHSVCTNPSDKWVQDYIKDMKEN
Consider B10, for which the IC50 (read off the curve) in assay [5] was 40 nM.
